# Results from the nanobody polyreactivity screen of Harvey et al. (2022).
# Experiment: yeast display, Sf9 membrane polyspecificity reagent, FACS + sequencing; frameworks hold sequencing errors
# Method in brief: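 After 36–48 hours of galactose induction, yeast (Saccharomyces cerevisiae BJ5465) displaying a synthetic nanobody library were stained at 4 °C for 1 hour with 10% biotinylated, detergent-solubilized Sf9 membrane reagent. Streptavidin microbeads enriched the stained cells before FACS sorting into low and high (top ~1%) gates on anti-HA and streptavidin fluorescence. Each clone's polyreactivity label reflects its gate of origin.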
row,Sequence,polyreactivity (PSR sort gate)
1,QVQLVESGGGLVQAGGSLRLSCAASGSTFVANAMGWYRQAPGKERELVAAIDYDDGGTYYADSVKGRFTISRDNAKNTVYLQMNSLKPEDTAVYYCAADYGDIGAVLHYPVELGYWGQGTQVTVSS,low polyreactivity
2,QVQLVESGGGLVQARGSLRLSCASSGRIFDNYAMGWYRQAPGKERELVAAITYIDSGTYYADSVKGRFTISRDNAKNTVYLQMNSLKPEDTAVFYCAVGLNSDSKRKTQKYGYWGQGTQVTVSS,low polyreactivity
3,QVQLVESGGGLVQAGGSLRLSCAASGNIFDIYAMGRYRQAPGKERELVAAISSGGSTYYADSVKGRFTISRDNAKNTVYLQMNSLKPEDTAVYYCAESRVGYYRYEYWGQGTQVTVSS,low polyreactivity
4,QVQLVESGGGLVQAGGSLRLSCAASGFTFFFYAMGWYRQAPGKEREFVAATSWIGGGTYYADSVKGRFTISRDNAKNTVYLLMNSLKPEDTAVYYCATDLASYAVGSKYGYWGQGTQVTVSS,low polyreactivity
5,QVQLVESGGGLVQAGGSLRLSCAASGSTFSWYTMGWYRQAPGKERELVAAITRDGSTYYADSVKGRFTISRDNAKNTVYLHMNSLKPEDTAVYYCAADLSYWRGGHSRNYWGQGTQVTVSS,low polyreactivity
6,QVQLVESGGGLVQAGGSLRLSCAASGSIFQPYAMGWYRQAPGKERELVAAITNGGSTYYADSVKGRFTISRDNAKNTVYLQMNSLKPEDTAVYYCATDVLLYFEPVNLDYWGQGTQVTVSS,low polyreactivity
7,QVQLVESGGGLVQAGGSLRLSCAASGFTFYIYAMGWYRQAPGKERELVAAISSGGGRTYYADSVKVRFTISRDNAKNTVYLQMTSLKPEDTAVYYCAARGRAFSYKNYGSDYWGQVTQVTVSS,high polyreactivity
8,QVQLVESGGGLVHAGGSLRVSCAASGIIFDGNAMGWYRQAPGKERELVAAITASGGSTHYADSVKGRFTISRDNAKNTVYLQMNSLKPEDTAVYYCNKRSRTTGDYDYWGQGTQVTVSS,low polyreactivity
9,QVQLVESGGGLVQAVRSRRLSSAASGSIFYFYPMGWYRQAPGKDREFVAAISSGGSTYYSDSVKGRFTNSRDNAKYTVYLQMNSLKPEDTAVYYCAAVSLYYRYDFWGQGTQVTVSS,low polyreactivity
10,QVQLVESGGGLVQAGGSLRLSCAASGSTFLRYAMGWYRQAPGKERELVAAISYRDGSTYYADSVKGRFTISRDNAKNTVYLQMNSLKPEDTAVYYCARGSWYRSAYYYWGQGTQVTVSS,high polyreactivity
11,QVQLVESGGGLVQAGGSLRLSCAASGIIFYWNAMGWYRQAPGKEREFVASISGSGGSTYADSVKGRFTISRDNAKKTVYLQMNSLKPEDTAVYYCAADFSNVGVQHDYYWGQGTQVTVSS,high polyreactivity
12,QVQLVESGGGLVQAGGSLRLSCAASGSIFRVYAMGWYRHAPGKERELVATITSSGGFTYADSVKGRFTISRDNAKNTVYLQMNSLKQEDTAVYYCATVRFGQYWVPSGYSWGYTYDYWGQGTQVTVSS,high polyreactivity
13,QVQHVESGGGLVQAGGSLRLSCAASGITFFFNAIGWYRQATGKQRQLVAAITSRGGRTYYADSVKGRFTISRDNAKYTVYLQMNSLKPEDTAVYYCAATKKTGYYRYYYWGQGTQVTVSS,high polyreactivity
14,QVQLVESGGGLFQAGGSLRISFAASGRIFGVNAMGWYRQAPGTQSELVAAISAGGGNTYYADSVKGRFTISRDNAKNTVYLQMNRLKPEDTAVYFCNVQRSLRMDFWGQGTQVTVSS,high polyreactivity
15,QVQLVESGGGLVQAGGSLRLSCAASGSIFHVNAMGWYRQAPGKERELVAGISDGGSTYYADSVKGRFTISRDNAKNTVYLQMNSLKPEDTAVYYCAAESEQWYSYVLSYDWEYDYWGQGTQVTVSS,low polyreactivity
16,QVQLVESGGGLVQAGGSLRLSCAASGSTFPKYPMGWYRQSPGKERELVASISVTTGSTYYADSVKGRFTISRDNAKHTVYLQMNSLKPEDTAVYYCAKRTYSRKFRGAYNYWGLGTQVTVSS,high polyreactivity
17,QVQLVESGGVLVQAGGSLRLSCAASGRIFYNYGMGWYIQAPGKERELVARITTGGRTNYADSVKGRFTISRDNAKNTVYLQMNSLKPEDTAVYYCNADGYHSRWYYYNYDYWGQGTQVTVSS,low polyreactivity
18,QVQLVESGGGLVQAGGSLRLSCAASGSIFVTNTMGWYRQAPGKERELVAAITYSGGSTYYADSVKGRFTISRDNAKNNVYLQMNSLKPEDTAVYYCAARRARYHVEYYYWGQGTQVTVSS,high polyreactivity
19,QVQLVESGGGLVQAGGSLRLSCAASGSTFYLYTMGWYRQAPGKERELVAASSINGGITYYADSVKGRFTISRDNAKNTVYFQMYSLKPEDTAVYYCAKSSGQTDVGSFYYRLDYWGQGTQVTVSS,low polyreactivity
20,QVQLVESGGGLVQAGGSLRLSCAASGNTITFNTMAWYRQAPGKEREVVAVISRSGGSTYYADSVKGRFTISRDNAKNTVYLQMNSLKPEDTAVYYCAATGFSYRYFQTRDYWGQGTQVTVSS,high polyreactivity
21,QVQLVESGGGLVQAGGSLRLSCAATGNIFRYNAMGWYRQAPGKERELFAAISSVGTTNYADSVKGRFTISRDNEKNTVYLQMNSLKPEDTAVYYVAAVAYQGGYLNDNWGQGTQVTLSS,low polyreactivity

row,Sequence,polyreactivity (PSR sort gate)
1,QVQLVESGGGLVQAGGSLRLSCAASGFTFNYYAMGWYRQAPGTERELVAAITSSGGSTYYADSVKGRFTISRDNAKNTVYLLMNSLKPEDTAVYYCNAAVYDHRYIYGFDYWGQGTQVTVSS,high polyreactivity
2,QVQLVESVGGLVQAGGSLRISCAASGRIFTHNVMGWYRQAPGKERELVAAISASGGSTYYADSVKGRFTISRDNAKNTVYLQMNSLKPEDTAVYYCNAGDYRTFYRRFDYWGQGTQVTVSS,low polyreactivity
3,QVQLVESGGGLVQAGGSLRLRCAASGLTFRYYAMGWYRQAPGKERELVAAISRTGRTNYSDSVKGRFTISRDNAKNTVYLQMNSLKPEDTAVYYCAATGIYAKALLWYDYWGQGTQVTVSS,high polyreactivity
4,QVQLVESGGGLVQAGGSLRLSCAATGRTFYQYAKGWSRQAPGKERELVAAISRRGGSTYYADSVKGRFTISRDNAKNTVYLQMNSLKPEDTAVYYCAAQRQYGKFDYWGQGTQVTVSS,high polyreactivity
5,QVQLVESGGGLVQAGGSLRLSCAASGRTFYGYGMGWYRQAPGKERELVAGISGRGTRTYYADSVKGRFTISRDNAKNTVYLQMNSLKPEDTAVYYCNAVSIGYYSQSLGLDYWGQGTQVTVSS,high polyreactivity
6,QVQLVETGGGLVQAGGTLRLSCADSGFTFHQYTMGWYIPAPGKERELVAAITGTGDTYYADSVKGRFTISRDNAKNTVYLQMNSLKPEDTAVYYCNALYVYRSVANFDYWGQGTQVTVSS,high polyreactivity
7,QVQLVESGGGLVQAGGSLRLSCAASGRIFYAYTMGWYRQAPGKESELVAAIRYGGGSTYYADSVKGRFTISRDNAKNTVYLLMNSLIPEDTAVYYCARDRYNLYSRSYYWGQGTQVTVSS,low polyreactivity
8,QVHLVESGGGLVQAGGSLRLSCAASGNTFRWYDMGWYRQAPGKERELVAAITSSGSTTYYADSVKGRFTISRDNAKNTVYLQMNSLKPEDTAVFYCAARNYGPYDYWGQGTQVTVSS,low polyreactivity
9,QVQLVESGGGLVQAGGSLSLSCAASGRTFVKNTMGWYRQAPGKERELVAAISSSGGSTYYADSVKGRFTISRDNAKNTVYLQMNSLKPEDTAVYYCAVSYPYKHAGGWYAYNYWGQGTLVTVSS,high polyreactivity
10,QVQLVESGGGLVQAGGSLRLSCAASGSTFYEYAMGWYRPAPGKERELVAAISSGGSTYYADSVKGRFTISRDNAKNTVYLQMNSLKPEDTAVYYCNSDCQTYGGEYDYWGQGTQVTVSS,low polyreactivity
11,QVQLVESGRGLVQAGGSLRLSCAASGYTFGYNAMGWYRQAPGKERELVATNSSGRTTTYADSVKGRFTISRDNAKNNVYLQMNSLKPEDNAGYYCATPVYRSSYEYDYWGQGTQVTVSS,low polyreactivity
12,QVQLVESGGGLVQGGGSLRLSCAASGRIFDRYAMGWYRQAPGKERELVAAISSSGGSTYYADSVKGRFTISRDNAKNTVYLQMNSLKPEDTPVYYCNADYYVSKLDYWGQGTQVTVSS,high polyreactivity
13,QVQLVESGGGLVQAGGSLRLSCAASGSTRRYVMGWYRQAPGKERELVAVISRGGSTYYADSVKGRFTISRDNAKNTVNLQMNSLKPEDTAVYYCNVQPVIPRGGDYWGQGTQVTVSS,high polyreactivity
14,QVQLVESGGGLVQAGGSLRLSCAASGITFLHYAMGWYRQAPGKERELVARITYSGSSTYYADSVKGRFTISRDNAKNTVYLQMNSVKPEDTAVYYCNARASWGRWSRTGTPRYDYWGQGTQVTVSS,high polyreactivity
15,QVQLVESGGGLVQAGGSLRLSCAASGFTFRWYAMGWYRQAPGKERELVAAIDWSGTTTYADSVKGRFTISRDNAKNTVYLQMNSLKPEDTAVYYCAAVFRRSGYASPYDYWGQGTQVTVSS,high polyreactivity
16,QVQLVESGGGLVQAGVSLRLSCAASGSTFSVNAMGWYRQAPGKERELVAAITYSGGSTYYADSVKGRFTISRDNAKNTVYLQMNSLKPEDTAVYYCAAEGGSALDDDYWGQGTQVTVSS,high polyreactivity
17,QVHLVESGGGLVQAGGSLRLSCAASGSIVFLYAMGWYRQAPGKEWELVAAISGRGTSTDYADSVKGRFTISRDNAKNTVYLQLTSLKPEDTAVYFCAAKYNRPYQGWRVNHWGQGTQVTVSS,high polyreactivity
18,QVQLVESGGGLVQAGGSLRLSCAASGRTFDVYAMGGYRQAPGKERELVATIYYRSARTYYADSVKGRFTISRDNAKNTVYLQMNSLTPEDTAVYYCAAYFETWHGFGYWGQGTQVTVSS,high polyreactivity
19,QVQLVESGGGLVQAGGSLRLSCAASGFTFTSNVMGWYREAPGKEWELVADISASDGRTYYADSVKGRFTISRDNAKNTVYLQMNSLKREDTAVYYCNVSSRRLRGLDYWGQGTQVTVSS,low polyreactivity
20,QVQLVESGGGLVQAGGSLRLSCAASGRTFAVNAMGWYRQAPGKEREFVARISTRGGGTYYADSVKGRFTISRDNAKNTVYLQMNSLKPEDTAVYYCNAGRTRNYYYYPMDYWGQGTQVTVSS,high polyreactivity
